According to patent US20250011363A1, “OPTIMIZED SHORTENED PEPTIDE THAT BINDS TO ACETYLCHOLINE RECEPTOR, AND USE THEREOF” (SKINMED CO., LTD., priority 2021, published 2025):

B1: 6mer-1-93 (peptide)
peptide: KRWIRR
B2: 6mer-1-90 (peptide)
peptide: KKGISK
B3: 6mer-1-89 (peptide)
peptide: RKQRCK
B4: 6mer-1-87 (peptide)
peptide: KKQVYK
B5: 6mer-1-86 (peptide)
peptide: KKWRQK
B6: 6mer-1-71 (peptide)
peptide: KRWFYK
B7: 6mer-1-100 (peptide)
peptide: RKWISK
B8: 6mer-1-73 (peptide)
peptide: KKQQQR
B9: 6mer-1-72 (peptide)
peptide: RKVQLK
B10: 6mer-1-76 (peptide)
peptide: RRLQLK
B11: 6mer-1-79 (peptide)
peptide: KRLFCK
B12: 6mer-1-99 (peptide)
peptide: RKVVYR
B13: 6mer-1-70 (peptide)
peptide: KKLLYR
B14: 6mer-1-95 (peptide)
peptide: KKWQTK
B15: 6mer-1-74 (peptide)
peptide: KKVRLR
B16: 6mer-1-85 (peptide)
peptide: RKRQCK
B17: 6mer-1-84 (peptide)
peptide: RRGQTK
B18: 6mer-1-77 (peptide)
peptide: KKQLRR
B19: 6mer-1-88 (peptide)
peptide: KRWICK
B20: 6mer-1-82 (peptide)
peptide: KKVLYR
B21: 6mer-1-81 (peptide)
peptide: RRWQLR
B22: 6mer-1-96 (peptide)
peptide: KRGVRK
B23: 6mer-1-78 (peptide)
peptide: KKRVSK
B24: 6mer-1-94 (peptide)
peptide: RKVQQK
B25: 6mer-1-69 (peptide)
peptide: RKVRRR
B26: 6mer-1-92 (peptide)
peptide: RRWRLK
B27: 6mer-1-75 (peptide)
peptide: RRQYQK
B28: 6mer-1-98 (peptide)
peptide: KRLQCR
B29: 6mer-1-91 (peptide)
peptide: RKQQCK
B30: 6mer-1-83 (peptide)
peptide: RRSFLR
B31: 6mer-1-97 (peptide)
peptide: KKVYLR
B32: 6mer-1-80 (peptide)
peptide: KRVQQR
B33: 5mer-278 (peptide)
peptide: RWQRR
B34: 5mer-280 (peptide)
peptide: KWILK
B35: 5mer-580 (peptide)
peptide: RGYTR
B36: 5mer-293 (peptide)
peptide: RQYYR
B37: 5mer-592 (peptide)
peptide: RWLCR
B38: 5mer-588 (peptide)
peptide: RSFTR
B39: 5mer-582 (peptide)
peptide: RGICK
B40: 5mer-581 (peptide)
peptide: KGVLR
B41: 5mer-286 (peptide)
peptide: RWFQK
B42: 5mer-593 (peptide)
peptide: KQYLK
B43: 5mer-298 (peptide)
peptide: KSIYR
B44: 5mer-285 (peptide)
peptide: KGQLK
B45: 5mer-586 (peptide)
peptide: KGRRR
B46: 5mer-277 (peptide)
peptide: RVFTR
B47: 5mer-579 (peptide)
peptide: RSLYK
B48: 5mer-283 (peptide)
peptide: KWVYK
B49: 5mer-282 (peptide)
peptide: RVLTR
B50: 5mer-587 (peptide)
peptide: RVITR
B51: 5mer-295 (peptide)
peptide: RGRCR
B52: 5mer-294 (peptide)
peptide: KQYYK
B53: 5mer-291 (peptide)
peptide: RWFTR
B54: 5mer-595 (peptide)
peptide: KWQQR
B55: 5mer-584 (peptide)
peptide: KQIQK
B56: 5mer-288 (peptide)
peptide: KLILK
B57: 5mer-576 (peptide)
peptide: RLFRK
B58: 5mer-575 (peptide)
peptide: KGFYR
B59: 5mer-597 (peptide)
peptide: KLVSR
B60: 5mer-276 (peptide)
peptide: RSLRR
B61: 5mer-287 (peptide)
peptide: KRYRR
B62: 5mer-591 (peptide)
peptide: RVYTK
B63: 5mer-577 (peptide)
peptide: KLVTK
B64: 5mer-297 (peptide)
peptide: RSLRK
B65: 5mer-598 (peptide)
peptide: RVRSK
B66: 5mer-578 (peptide)
peptide: KSVLR
B67: 5mer-585 (peptide)
peptide: RSVSK
B68: 5mer-590 (peptide)
peptide: KQYTK
B69: 5mer-296 (peptide)
peptide: KWISK
B70: 5mer-589 (peptide)
peptide: KGLCR
B71: 5mer-289 (peptide)
peptide: RRQYR
B72: 5mer-281 (peptide)
peptide: RGFLK
B73: 5mer-594 (peptide)
peptide: KQYSR
B74: 5mer-284 (peptide)
peptide: KQVQR
B75: 5mer-596 (peptide)
peptide: KLQQR
B76: 5mer-279 (peptide)
peptide: RVVTK
B77: 5mer-290 (peptide)
peptide: RGYYR
B78: 5mer-583 (peptide)
peptide: KVVYR
B79: 5mer-292 (peptide)
peptide: KLVCK

biological target: acetylcholine receptor; experiment: SPR, receptor on CM5 chip, peptide 10 µM

Compared with B1, B2 is lower in Binding affinity (RU): 136 RU for the first, 125 RU for the second.

First: B3
Second: B4
The Binding affinity (RU) of the first is higher: 142 RU for the first, 139 RU for the second.

Going from B5 to B6, the Binding affinity (RU) falls from 142 RU to 121 RU.

Compared with B7, B8 is lower in Binding affinity (RU): 146 RU for the first, 142 RU for the second.

Compared with B9, B10 is lower in Binding affinity (RU): 139 RU for the first, 126 RU for the second.

First: B11
Second: B12
The Binding affinity (RU) of the first is higher: 137 RU for the first, 136 RU for the second.

First: B13
Second: B14
The Binding affinity (RU) of the first is lower: 139 RU for the first, 142 RU for the second.

Compared with B15, B16 is lower in Binding affinity (RU): 142 RU for the first, 121 RU for the second.

Compared with B17, B18 is higher in Binding affinity (RU): 142 RU for the first, 149 RU for the second.

First: B19
Second: B20
The Binding affinity (RU) of the first is lower: 121 RU for the first, 123 RU for the second.

Compared with B21, B22 is lower in Binding affinity (RU): 148 RU for the first, 125 RU for the second.

Going from B23 to B24, the Binding affinity (RU) falls from 145 RU to 142 RU.

Compared with B25, B26 is higher in Binding affinity (RU): 142 RU for the first, 153 RU for the second.

Compared with B27, B28 is higher in Binding affinity (RU): 139 RU for the first, 154 RU for the second.

Compared with B29, B30 is higher in Binding affinity (RU): 131 RU for the first, 146 RU for the second.

Going from B31 to B32, the Binding affinity (RU) falls from 139 RU to 133 RU.

biological target: acetylcholine receptor; experiment: SPR, AchR immobilised on chip, peptide at 10 uM

Compared with B33, B34 is lower in Binding affinity (RU): 66 RU for the first, 53 RU for the second.

First: B35
Second: B36
The Binding affinity (RU) of the first is lower: 70 RU for the first, 83 RU for the second.

First: B37
Second: B38
The Binding affinity (RU) of the first is lower: 56 RU for the first, 60 RU for the second.

First: B39
Second: B40
The Binding affinity (RU) of the first is higher: 82 RU for the first, 65 RU for the second.

Compared with B41, B42 is higher in Binding affinity (RU): 71 RU for the first, 77 RU for the second.

B43 and B44 are the same in Binding affinity (RU): 75 RU for the first, 75 RU for the second.

First: B45
Second: B46
The Binding affinity (RU) of the first is lower: 78 RU for the first, 82 RU for the second.

Going from B47 to B48, the Binding affinity (RU) falls from 53 RU to 51 RU.

First: B49
Second: B50
The Binding affinity (RU) of the first is higher: 77 RU for the first, 66 RU for the second.

Compared with B51, B52 is lower in Binding affinity (RU): 52 RU for the first, 50 RU for the second.

First: B53
Second: B54
The Binding affinity (RU) of the first is higher: 72 RU for the first, 58 RU for the second.

Compared with B55, B56 is lower in Binding affinity (RU): 76 RU for the first, 73 RU for the second.

First: B57
Second: B58
The Binding affinity (RU) of the first is lower: 62 RU for the first, 69 RU for the second.

First: B59
Second: B60
The Binding affinity (RU) of the first is lower: 68 RU for the first, 70 RU for the second.

Going from B61 to B62, the Binding affinity (RU) falls from 68 RU to 61 RU.

Compared with B63, B64 is higher in Binding affinity (RU): 77 RU for the first, 81 RU for the second.

Going from B65 to B66, the Binding affinity (RU) falls from 84 RU to 65 RU.

Going from B67 to B68, the Binding affinity (RU) rises from 74 RU to 81 RU.

First: B69
Second: B70
The Binding affinity (RU) of the first is lower: 55 RU for the first, 58 RU for the second.

Going from B71 to B72, the Binding affinity (RU) falls from 87 RU to 58 RU.

First: B73
Second: B74
The Binding affinity (RU) of the first is lower: 50 RU for the first, 52 RU for the second.

B75 and B76 are the same in Binding affinity (RU): 56 RU for the first, 56 RU for the second.

First: B77
Second: B78
The Binding affinity (RU) of the first is lower: 57 RU for the first, 75 RU for the second.

B79 gave a Binding affinity (RU) of 59 RU.
